Results reported in patent publication US11053476B2, “Generation of cancer stem cells and use thereof” (EXOSTEM BIOTEC LTD., priority 2016, dated 2021).

Assays:
Assay type in all cases: cell-based
Sox2 = Sox2 expression in generated CSCs, factor added to basic protocol
Protocol: (§1) In order to generate CSCs in vitro, both primary differentiated cancer cells (primary glioma cells) as well as cells from a cancer cell line (U87 cells) were obtained. Glioma cells and U87 cells were trypsinized, and washed three times with medium +10% FCS. The cells were then resuspended in medium that was brought to a pH of 6.0 and were placed on a rotator and incubated for 45-90 minutes. The cells were then incubated in medium supplemented with EGF and FGF. The cells were optionally kept in mild hypoxic conditions (2-3% oxygen) during this second incubation and were then plated on bacterial plates.
(§2) Tumorspheres formed on these plates within one week and were removed from the cells that had attached to the dish. The tumorspheres were disaggregated and the cells were re-plated at limiting dilution to generate secondary spheroids. The secondary tumorspheres were then characterized for CSC specific markers, the ability to self-renew and the ability to generate tumors that recapitulate the parental tumors.
Knowing that the basic protocol for generating CSCs (acid, EGF/FGF and two rounds of sphere generation) was successful; several modifications to the protocol were examined. […] Second, a wide range of factors were found, that when supplemented to the EGF and FGF containing media, increased the efficacy of the protocol, either by increasing the number of CSCs produced or by increasing their stemness.

[1] = system: CSCs generated from differentiated cancer cells; assay: Self-renewal of CSCs (secondary tumorspheres) generated from differentiated cancer cells, factor added to basic protocol
Protocol: as §1, §2
Knowing that the basic protocol for generating CSCs (acid, EGF/FGF and two rounds of sphere generation) was successful; several modifications to the protocol were examined. […]

[2] = system: differentiated cancer cells; assay: Efficacy and penetrance of dedifferentiation with transcription and secreted factors; settings: expression in the cells or in their media during second incubation or tumorsphere formation
Protocol: as §1, §2
Lastly, several transcription factors and secreted factors that are known to enhance stemness or cancer progression were introduced into the differentiated cells during the second incubation or during tumorsphere formation.

B1: Lin-28: overexpressed factor, called miR in b196 and protein in b22 (protein, UniProt Q9H9Z2 2-209, looked up)
Protein lin-28 homolog A: GSVSNQQFAGGCAKAAEEAPEEAPEDAARAADEPQLLHGAGICKWFNVRMGFGFLSMTARAGVALDPPVDVFVHQSKLHMEGFRSLKEGEAVEFTFKKSAKGLESIRVTGPGGVFCIGSERRPKGKSMQKRRSKGDRCYNCGGLDHHAKECKLPPQPKKCHFCQSISHMVASCPLKAQQGPSAQGKPTYFREEEEEIHSPTLLPEAQN
Sox2; overexpressed miR or polynucleotide inhibitor, FIG. 7B
  Sox2 expression over the basic protocol: improved
[1]; overexpressed miR or polynucleotide inhibitor, FIG. 7A
  self-renewal over the basic protocol: improved

B2: RUNX2: transcription or secreted factor expressed in the cells or in their media (protein, UniProt Q13950 1-521, looked up)
Runt-related transcription …: MASNSLFSTVTPCQQNFFWDPSTSRRFSPPSSSLQPGKMSDVSPVVAAQQQQQQQQQQQQQQQQQQQQQQQEAAAAAAAAAAAAAAAAAVPRLRPPHDNRTMVEIIADHPAELVRTDSPNFLCSVLPSHWRCNKTLPVAFKVVALGEVPDGTVVTVMAGNDENYSAELRNASAVMKNQVARFNDLRFVGRSGRGKSFTLTITVFTNPPQVATYHRAIKVTVDGPREPRRHRQKLDDSKPSLFSDRLSDLGRIPHPSMRVGVPPQNPRPSLNSAPSPFNPQGQSQITDPRQAQSSPPWSYDQSYPSYLSQMTSPSIHSTTPLSSTRGTGLPAITDVPRRISDDDTATSDFCLWPSTLSKKSQAGASELGPFSDPRQFPSISSLTESRFSNPRMHYPATFTYTPPVTSGMSLGMSATTHYHTYLPPPYPGSSQSQSGPFQTSSTPYLYYGTSSGSYQFPMVPGGDRSPSRMLPPCTTTSNGSTLLNPNLPNQNDGVDADGSHSSSPTVLNSSGRMDESVWRPY
[2]
  effect on dedifferentiation brought about by the standard protocol: increase the efficacy and penetrance of the dedifferentiation

B3: IL10: anti-inflammatory cytokine (protein, UniProt P22301 19-178, looked up)
Interleukin-10: SPGQGTQSENSCTHFPGNLPNMLRDLRDAFSRVKTFFQMKDQLDNLLLKESLLEDFKGYLGCQALSEMIQFYLEEVMPQAENQDPDIKAHVNSLGENLKTLRLRLRRCHRFLPCENKSKAVEQVKNAFNKLQEKGIYKAMSEFDIFINYIEAYMTMKIRN
Sox2; cytokine supplemented to second incubation media, FIG. 4B
  effect on Sox2 expression: no effect
[1]; cytokine supplemented to second incubation media, FIG. 4A
  effect on rate of self-renewal: no effect

B4: CEBP/B: transcription or secreted factor expressed in the cells or in their media (protein, UniProt P17676 1-345, looked up)
CCAAT/enhancer-binding …: MQRLVAWDPACLPLPPPPPAFKSMEVANFYYEADCLAAAYGGKAAPAAPPAARPGPRPPAGELGSIGDHERAIDFSPYLEPLGAPQAPAPATATDTFEAAPPAPAPAPASSGQHHDFLSDLFSDDYGGKNCKKPAEYGYVSLGRLGAAKGALHPGCFAPLHPPPPPPPPPAELKAEPGFEPADCKRKEEAGAPGGGAGMAAGFPYALRAYLGYQAVPSGSSGSLSTSSSSSPPGTPSPADAKAPPTACYAGAAPAPSQVKSKAKKTVDKHSDEYKIRRERNNIAVRKSRDKAKMRNLETQHKVLELTAENERLQKKVEQLSRELSTLRNLFKQLPEPLLASSGHC
[2]
  effect on dedifferentiation brought about by the standard protocol: increase the efficacy and penetrance of the dedifferentiation

B5: WNT5A: transcription or secreted factor expressed in the cells or in their media (protein, UniProt P41221 62-380, looked up)
Protein Wnt-5a: IIGAQPLCSQLAGLSQGQKKLCHLYQDHMQYIGEGAKTGIKECQYQFRHRRWNCSTVDNTSVFGRVMQIGSRETAFTYAVSAAGVVNAMSRACREGELSTCGCSRAARPKDLPRDWLWGGCGDNIDYGYRFAKEFVDARERERIHAKGSYESARILMNLHNNEAGRRTVYNLADVACKCHGVSGSCSLKTCWLQLADFRKVGDALKEKYDSAAAMRLNSRGKLVQVNSRFNSPTTQDLVYIDPSPDYCVRNESTGSLGTQGRLCNKTSEGMDGCELMCCGRGYDQFKTVQTERCHCKFHWCCYVKCKKCTEIVDQFVCK
[2]
  effect on dedifferentiation brought about by the standard protocol: increase the efficacy and penetrance of the dedifferentiation

B6: PKC epsilon: protein kinase C epsilon; activators or overexpression (protein, UniProt Q02156 1-737, looked up)
Protein kinase C epsilon type: MVVFNGLLKIKICEAVSLKPTAWSLRHAVGPRPQTFLLDPYIALNVDDSRIGQTATKQKTNSPAWHDEFVTDVCNGRKIELAVFHDAPIGYDDFVANCTIQFEELLQNGSRHFEDWIDLEPEGRVYVIIDLSGSSGEAPKDNEERVFRERMRPRKRQGAVRRRVHQVNGHKFMATYLRQPTYCSHCRDFIWGVIGKQGYQCQVCTCVVHKRCHELIITKCAGLKKQETPDQVGSQRFSVNMPHKFGIHNYKVPTFCDHCGSLLWGLLRQGLQCKVCKMNVHRRCETNVAPNCGVDARGIAKVLADLGVTPDKITNSGQRRKKLIAGAESPQPASGSSPSEEDRSKSAPTSPCDQEIKELENNIRKALSFDNRGEEHRAASSPDGQLMSPGENGEVRQGQAKRLGLDEFNFIKVLGKGSFGKVMLAELKGKDEVYAVKVLKKDVILQDDDVDCTMTEKRILALARKHPYLTQLYCCFQTKDRLFFVMEYVNGGDLMFQIQRSRKFDEPRSRFYAAEVTSALMFLHQHGVIYRDLKLDNILLDAEGHCKLADFGMCKEGILNGVTTTTFCGTPDYIAPEILQELEYGPSVDWWALGVLMYEMMAGQPPFEADNEDDLFESILHDDVLYPVWLSKEAVSILKAFMTKNPHKRLGCVASQNGEDAIKQHPFFKEIDWVLLEQKKIKPPFKPRIKTKRDVNNFDQDFTREEPVLTLVDEAIVKQINQEEFKGFSYFGEDLMP
Sox2; PKC activation, FIG. 6B
  effect on Sox2 expression: increase Sox2 expression
  effectiveness on Sox2 expression compared with PMA: more effective that PMA

B7: COX2: transcription or secreted factor expressed in the cells or in their media (protein, UniProt P35354 18-604, looked up)
Prostaglandin G/H synthase 2: ANPCCSHPCQNRGVCMSVGFDQYKCDCTRTGFYGENCSTPEFLTRIKLFLKPTPNTVHYILTHFKGFWNVVNNIPFLRNAIMSYVLTSRSHLIDSPPTYNADYGYKSWEAFSNLSYYTRALPPVPDDCPTPLGVKGKKQLPDSNEIVEKLLLRRKFIPDPQGSNMMFAFFAQHFTHQFFKTDHKRGPAFTNGLGHGVDLNHIYGETLARQRKLRLFKDGKMKYQIIDGEMYPPTVKDTQAEMIYPPQVPEHLRFAVGQEVFGLVPGLMMYATIWLREHNRVCDVLKQEHPEWGDEQLFQTSRLILIGETIKIVIEDYVQHLSGYHFKLKFDPELLFNKQFQYQNRIAAEFNTLYHWHPLLPDTFQIHDQKYNYQQFIYNNSILLEHGITQFVESFTRQIAGRVAGGRNVPPAVQKVSQASIDQSRQMKYQSFNEYRKRFMLKPYESFEELTGEKEMSAELEALYGDIDAVELYPALLVEKPRPDAIFGETMVEVGAPFSLKGLMGNVICSPAYWKPSTFGGEVGFQIINTASIQSLICNNVKGCPFTSFSVPDPELIKTVTINASSSRSGLDDINPTVLLKERSTEL
[2]
  effect on dedifferentiation brought about by the standard protocol: increase the efficacy and penetrance of the dedifferentiation
